Data taken from the supplement of paper PMC5998384.

Tests used:
HeLa Kyoto [1] = assay: solubility in G1/S (NP-40 vs SDS abundance) (log2 ratio); higher = more soluble; conditions: cell cycle stage: G1/S
HeLa Kyoto [2] = assay: melting temperature (median over replicates), in situ; higher = more thermally stable
HeLa Kyoto [3] = assay: solubility change mitosis vs G1/S (difference of NP-40 vs SDS log2 ratios) (log2 ratio difference); higher = more soluble in mitosis
HeLa Kyoto [4] = assay: thermal stability score vs G1/S (z-score of summed log2 fold changes over temperatures); higher = more thermally stable than in G1/S
[5] = cell cycle stage: early G1 (4.5 h after nocodazole release)
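For melting temperature (median over replicates), in situ in this document: HeLa Kyoto cells synchronized by double thymidine or nocodazole block, proteins quantified by TMT10plex mass spectrometry, three independent biological replicates.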
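For solubility change mitosis vs G1/S (difference of NP-40 vs SDS log2 ratios) in this document: synchronized HeLa Kyoto cells (double thymidine block for G1/S, nocodazole release for mitosis), protein amounts in NP-40 versus SDS lysates quantified by mass spectrometry, three biological replicates.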
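For solubility in G1/S (NP-40 vs SDS abundance) in this document: HeLa Kyoto cells arrested at G1/S by double thymidine block, proteins quantified by TMT10plex mass spectrometry in mild NP-40 versus SDS extracts, three biological replicates.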
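For thermal stability score vs G1/S (z-score of summed log2 fold changes over temperatures) in this document: synchronized HeLa Kyoto cells, proteins quantified by TMT10plex mass spectrometry, three biological replicates, mitosis taken 0.5 h after nocodazole release, G1/S directly after double thymidine block.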

Sequence | solubility in G1/S (log2) (HeLa Kyoto [1]) | melting temperature (HeLa Kyoto [2]; cell cycle stage: G1/S) | melting temperature (HeLa Kyoto [2]; cell cycle stage: mitosis) | solubility change mitosis (log2) (HeLa Kyoto [3]) | thermal stability score (HeLa Kyoto [4]; [5]) | thermal stability score (HeLa Kyoto [4]; cell cycle stage: mitosis)
MIHSLFLINCSGDIFLEKHWKSVVSQSVCDYFFEAQEKAADVENVPPVISTPHHYLISIYRDKLFFVSVIQTEVPPLFVIEFLHRVADTFQDYFGECSEAAIKDNVVIVYELLEEMLDNGFPLATESNILKELIKPPTILRSVVNSITGSSNVGDTLPTGQLSNIPWRRAGVKYTNNEAYFDVVEEIDAIIDKSGSTVFAEIQGVIDACIKLSGMPDLSLSFMNPRLLDDVSFHPCIRFKRWESERVLSFIPPDGNFRLISYRVSSQNLVAIPVYVKHSISFKENSSCGRFDITIGPKQNMGKTIEGITVTVHMPKVVLNMNLTPTQGSYTFDPVTKVLTWDVGKITPQKLPSLKGLVNLQSGAPKPEENPSLNIQFKIQQLAISGLKVNRLDMYGEKYKPFKGVKYVTKAGKFQVRT [AP3M1] | -0.0152 | 50.8 °C | 50.1 °C | -0.0783 | 0.811 | 0.722
MILIPRMLLVLFLLLPILSSAKAQVNPAICRYPLGMSGGQIPDEDITASSQWSESTAAKYGRLDSEEGDGAWCPEIPVEPDDLKEFLQIDLHTLHFITLVGTQGRHAGGHGIEFAPMYKINYSRDGTRWISWRNRHGKQVLDGNSNPYDIFLKDLEPPIVARFVRFIPVTDHSMNVCMRVELYGCVWLDGLVSYNAPAGQQFVLPGGSIIYLNDSVYDGAVGYSMTEGLGQLTDGVSGLDDFTQTHEYHVWPGYDYVGWRNESATNGYIEIMFEFDRIRNFTTMKVHCNNMFAKGVKIFKEVQCYFRSEASEWEPNAISFPLVLDDVNPSARFVTVPLHHRMASAIKCQYHFADTWMMFSEITFQSDAAMYNNSEALPTSPMAPTTYDPMLKVDDSNTRILIGCLVAIIFILLAIIVIILWRQFWQKMLEKASRRMLDDEMTVSLSLPSDSSMFNNNRSSSPSEQGSNSTYDRIFPLRPDYQEPSRLIRKLPEFAPGEEESGCSGVVKPVQPSGPEGVPHYAEADIVNLQGVTGGNTYSVPAVTMDLLSGKDVAVEEFPRKLLTFKEKLGEGQFGEVHLCEVEGMEKFKDKDFALDVSANQPVLVAVKMLRADANKNARNDFLKEIKIMSRLKDPNIIHLLAVCITDDPLCMITEYMENGDLNQFLSRHEPPNSSSSDVRTVSYTNLKFMATQIASGMKYLSSLNFVHRDLATRNCLVGKNYTIKIADFGMSRNLYSGDYYRIQGRAVLPIRWMSWESILLGKFTTASDVWAFGVTLWETFTFCQEQPYSQLSDEQVIENTGEFFRDQGRQTYLPQPAICPDSVYKLMLSCWRRDTKNRPSFQEIHLLLLQQGDE [DDR2] | -0.114 | 50.8 °C | 51 °C | 0.0106 | 0.527 | -1.72
MIPRKRYGSKNTDQGVYLGLSKTQVLSPATAGSSSSDIAPLPPPVTLVPPPPDTMSCRDRTQEFLSACKSLQTRQNGIQTNKPALRAVRQRSEFTLMAKRIGKDLSNTFAKLEKLTILAKRKSLFDDKAVEIEELTYIIKQDINSLNKQIAQLQDFVRAKGSQSGRHLQTHSNTIVVSLQSKLASMSNDFKSVLEVRTENLKQQRSRREQFSRAPVSALPLAPNHLGGGAVVLGAESHASKDVAIDMMDSRTSQQLQLIDEQDSYIQSRADTMQNIESTIVELGSIFQQLAHMVKEQEETIQRIDENVLGAQLDVEAAHSEILKYFQSVTSNRWLMVKIFLILIVFFIIFVVFLA [STX5] | 0.558 | 50 °C | 49.9 °C | -0.103 | 0.862 | 1.55
MIPVAEFKQFTEQQPAFKVLKPWWDVLAEYLTVAMLMIGVFGCTLQVTQDKIICLPNHELQENLSEAPCQQLLPRGIPEQIGALQEVKGLKNNLDLQQYSFINQLCYETALHWYAKYFPYLVVIHTLIFMVCTSFWFKFPGTSSKIEHFISILGKCFDSPWTTRALSEVSGENQKGPAATERAAATIVAMAGTGPGKAGEGEKEKVLAEPEKVVTEPPVVTLLDKKEGEQAKALFEKVKKFRMHVEEGDILYTMYIRQTVLKVCKFLAILVYNLVYVEKISFLVACRVETSEVTGYASFCCNHTKAHLFSKLAFCYISFVCIYGLTCIYTLYWLFHRPLKEYSFRSVREETGMGDIPDVKNDFAFMLHLIDQYDSLYSKRFAVFLSEVSESRLKQLNLNHEWTPEKLRQKLQRNAAGRLELALCMLPGLPDTVFELSEVESLRLEAICDITFPPGLSQLVHLQELSLLHSPARLPFSLQVFLRDHLKVMRVKCEELREVPLWVFGLRGLEELHLEGLFPQELARAATLESLRELKQLKVLSLRSNAGKVPASVTDVAGHLQRLSLHNDGARLVALNSLKKLAALRELELVACGLERIPHAVFSLGALQELDLKDNHLRSIEEILSFQHCRKLVTLRLWHNQIAYVPEHVRKLRSLEQLYLSYNKLETLPSQLGLCSGLRLLDVSHNGLHSLPPEVGLLQNLQHLALSYNALEALPEELFFCRKLRTLLLGDNQLSQLSPHVGALRALSRLELKGNRLEALPEELGNCGGLKKAGLLVEDTLYQGLPAEVRDKMEEE [LRRC8E] | 0.0423 | 53.2 °C | 53.1 °C | -0.0391 | -1.17 | -1.48
